The record followed here is a protein production outcome set (Wang et al. 2014).

This series can be described thus: label from the status in PepcDB records.
With “MRVPLDEIDKKIIKILQNDGKAPLREISKITGLAESTIHERIRKLRESGVIKKFTAIIDPEALGYSMLAFILVKVKAGKYSEVASNLAKYPEIVEVYETTGDYDMVVKIRTKNSEELNNFLDLIGSIPGVEGTHTMIVLKTHKETTELPIK”, the protein production result was “not failed”.
As for “MRVSCLSLPWHTPKALLHETITQTYLLWHIVLEHMDIVIVGAGRVGSRTARVVTNEDHAVTVIEQDYDRAERARTEGFDVVEGDGTSEDTLLDAGIDTADAIGALTSDLNTNFIACMVGNHHDCRTVLRIDEDYREDIYRKYADEVDEIVYPERLGAIGAKNALLGGNVTAIADLAEHLQVVQLTVTDEAPMRGYSISELELPAGARLLAFGKHDASLALPLPSETLETGDRIAVLAEFDTLDSVRQILVGNAPPTEVA”, the entry is “failed”; as for “MRVSVVIPARNEEAYLPSALEAVLAQTLPPFEVIVVDNASTDRTREVAEALGARVVFCGRRGVAYARQAGLLAARGEWVAMTDADSLPTPRWLERLAHKAPGAVAVYGPLRFYGVSPLEAALSEWGYRAFLNLMALLGRPNLAGANMMVLKEAALRVGGFPEVEAREDVLLGWRLKALGPVRYAGDALVLTSARRLQGGWGRFLLRQARNLLGDPRGYFGEAGERERLEHHHHHH”, “not failed”.
“MRWLNRHKFLPFLAWLPQQSRASVGRDALVGLSGAILALPQSIAYALIAGLPPEYGLYAAIVPVLIACLWGSSWHLICGPTAAISIVLYVSVSPLAVPASQDYIMLILLLTFIAGVFQLLLGMMRFGALVNFVSHSVVLGFTLGAAVVIALGQMPNLLGIDLPSQTTALKSLSAVLEHRGELDKPSLMLGLLTLTLGIGLKAWVPRWPTLLIALVSSSLLVWLWPAMFGHVRVVSAFVGHLPPFSPLPLDLELILKLLPTAVAVGMLGLVNSLSIARSLSARSQQMLNANQEVRAQGLSNMVGSLFSGYLSAGSFTRAALSYEAGARSPLAGVFSALWVALFAVAGASLVSHIPIPAMAASILLICWGLVDRRGIRALLRVSRAEFFVMALTCLATLLLELQTAIYAGVLASLFFYLKRTSQPRVQQWREGDEDVLRVGGSIFFGASHYLQTRLQRTEGLRVVIDAQQINFIDYSGVEMLHQEARRLGQQGRVLVLRNARPLVIEELHKLEGPENCPILFED”: the protein production result is given as “failed”.
As for “MRWNICVVGAGKIGQMIAALLKTSSNYSVTVADHDLAALAVLNRMGVATKQVDAKDEAGLAKALGGFDAVISAAPFFLTPIIAKAAKAAGAHYFDLTEDVAATNAVRALAEDSQT”, the entry is “not failed”; as for “MRWRSSRLGRAPLLGALAILWFAVLLPRGGTAGAGPGARGIRRSTGVCAGSRPRPAALLRRSAKVVAGFSVFGCPATAFESCVLSPAPSNSLASVFLLCLLPGLMEETIHTVSTEAFALQAEDPDHTILDVRPIAAYNGWPLQDESRSGHVPGAKSLPLQWTQYMDWVEVLDEKGLSQNAPVTVYGYTADAAAEMADKLSRLGFEAVGVYDGFLEDWAPDPDRPLQRMERYQQLVYPEWVQRLRTGETPPGMRGDDHVLCHAHFGYRQDYEDGHIPGAIPLNTNALESPETWNRRSPEELKSALEDHGIRHDTTVVLYGRFSYPTYDQDDPAQSAGHLGAMRCAALMLYAGVEDVKILNGGISTWESAGYDVSTDDVEPAPVDDFGAEVPAHPEYMLTLDEAKALLEADDGDLVSVRSWAEFIGERSGYHYIDKTGRIPGAVFGNCGSDAYHMENYRNFDYTTREFSEIAGKWAEMGITPDKHIAFYCGTGWRGSEAFMNAYLMGWPNISVYDGGWYEWSSHPDTETATGVPENDVPA”, “failed”; as for “MRYAVVLYPCSSFHHESVRPSRFPAPRRHPLLHRLPLAVARRLAGPGTADHFRERAGRGGAASRQRRRVPRRGRRRAAVGPQGGRRLSRAENPQAAAARPHRAGQGAGAQRPSLSAAMNAPQRKIIHVDCDCFYAAIEMRDDPSLRDVPLAVGGRPETRGVVATCNYIARRYGVHSAMSSARALRLCPELLIVPPDMARYRLASQQIMAIYQRYTEVIEPLSLDEAYLDVTGQPHERGSATLMAEAIRRQIRDEVGITASAGIAPNKFLAKVASDWNKPDGQYLIRPRDIDAFVAVLPVEKIHGVGRVTAERLHRLGIRSCGDLRRWSPADLFRHFGSFGERLLALAHGRDERPVSTDRSRKTISVEETYAQDLPDLASCLSKLPELVDRLQARLARSGSPAFKGLSVKLKFDDFSQTTVEQPGYALSMAAFGQLLRAGHARGARPARLLGVGVKLADDFDLPRQLRLFGRDGRPLPDSAPPAEAPPGGPEADSAA”, “failed”.
The entry for “MSAATPQPPAPHVVLGSGPAGTALARELVRRGHPVRLVDRRATGPAVEGVERFPADVGTADGARAAIRDAAVVYHCVNVAYHLQVEVMPRVQEAVLAAVEESGARLVVLDTVYPYGETGGAVMTEDSPWKATSRKGRMRAELDERYLAAHRSGRARVVLGRSADFVGPGVLNSSLGAAVFPGALTGGDVVAMGNIDLPHSYTGIEDVAAALATLGERPDGDGRVWHLPTAPAVSTREIHALIEKRVGRPLNVVVLERPRPFGPFDEQLMAEYEEMFYQHTEAQIMDSGAFERFFEAAPTPLADTLDATVTWYEAWLRSR” is “failed”.
As for “MSAEATPESTLPGTAAETSPDNPWPLQLLSRKLKAHIERAPAAWIEGQVIELNRRGGNAFLTLRDVDAEISLPASVWSTVLDRQKVPLERGSRVVALVKADFWVKTGRLNMSVKDIRPVGLGDLLARIERLRQALAAEGLFADSRKRKLPLLPHRIGLITGRESDAKKDVMRNAALRWPAVEFDVREVAVQGNTAVSQIIAALKRLDADPHVDVIVLARGGGALEDLLPFSNEDLIRAVSAATTPVVSAIGHEADRPILDDVADLRASTPTDAAKRIVPDVAEELAMVRQARDHLRRSISRMVDRETDRLHALRSRPVLASPASMVDARSEDIHRLQRRTHSAVSTAVVRALDQVHHLRAQVRALSPQKTLDRGYAVVQLVGEDQAGHHVVSSPDEAPDGTPLSIRVAEGRFRAVSAGAGQLVEH”, the entry is “failed”; as for “MSAERSRWLQCLGLPATADAIAIKTAYRQLARQWHPDCNPDPQATARFQEIQIAYERLLVLQESATAQPVPQAPPADAALIALKRQFQPQLQDLLADGRWAKAIALTEALQQRLPDDWEVRQWLAICYLRQGQALLVQQQRQQAIVYFEKARRTDPHNPRLQQEIQASHRLASARRA”, “failed”.
“MSAGLVQAAYIVAALFFIMSLAGLSKQESARNGNYYGIAGMAIALIATIFSPDAQGFGWIIIAMAIGGAIGIFYAKKVEMTEMPELVAILHSFVGLAAVLVGYNSYLDAPEAATHAEHVIHLVEVFLGVFIGAVTFTGSIVAFGKLRGVISSSPLNLPHKHKMNLAAIVVSTLLMIYFVKADGSMFALIVMTLIAFAFGYHLVASIGGADMPVVVSMLNSYSGWAAAAAGFMLANDLLIVTGALVGSSGAILSYIMCKAMNRSFISVIAGGFGQEIIISSDEEQGEHRETTAEEVAEMLKNSKSVIITPGYGMAVAQAQYPVHEITDALRSQGIEVRFGIHPVAGRLPGHMNVLLAEAKVPYDIVLEMDEINDDFSETDTVLVIGANDTVNPAALEDPNSPIAGMPVLEVWNAKNVIVFKRSMNTGYAGVQNPLFFKENTSMLFGDAKESVEAIFKAL”: the protein production entry is “not failed”.
For “MSAIDCIITAAGLSSRMGQWKMMLPWQQGTILDTSIKNALQFCSRIILVTGYRGNELHERYVNQSNITIIHNPDYAQGLLTSVKAAVPAVQTEHCFLTHGDMPTLTIDIFRKIWSLRNDGAILPLHNGIPGHPILVSKPCLMQAIKRPNITNMRQALLMGAHYSVEVENAEIILDIDTPDDFITVQKRYTKI”, the protein production result is recorded as “failed”.
As for “MSAIDRGSGSSMEEPERPEGPLADADGRESVTDHQDTTAADTPEDATTGSAARSETGAAPDTAQAASAPSAAAAPASEPAASAAEQRDASHEAPAPGSRETPPHPAPRPAPFAPQSHAPHPAWGPPAPDQATARHGAQAYPGPEAPQPAPGRPGPPPAGGVPAGAAQGAWQERPAQHDQPNSPTGAWAVPPSPGGFFPPTGGFPTLHGSSPFEGAPPPGKPQRSGRVVLIAAVTALITSLIVGPAASVATAYFLSEQVAANPAATSAASGDVTKVAAKALPSVVSIATAEGGGSGFIIRDDGLIVTNNHVVSDAQELTVLFHDGSQASATIVGTDPVSDLAVIRAQGVSGLTPASLGDSDQVEVGAEVVAIGAPLGLSGTVTSGVVSAVERPVNTGVSGQQDSPLLPSPDEEEPQATTSTVIDAIQTDAPINPGNSGGPLVNMNGEVIGINTAIATTSGNFMSQSGSIGLGFAIPINQAKPIIEELINTGKATYAAIEASVTVAEDGPGAELVEVNRGGAADQAGLRKGDVIIRIEDRMVTDPNVLIAEIRSHRPGDTVTITYQRGGQTAQTTVTLAAQSLDN”, the entry is “failed”; as for “MSAKSKQYFNIFVFIISLIFFDQLSKYLVAKYVKLGSIYFSFFDDFFRIIHVRNTGILFSMGSNIHYSLKKIFFLAMPIFILIFVFYLSLKERNCIARISLLLIFSGGVGNVIDRLFRPSGVVDFLDLKFYGIFGLDRWPTFNFADSYVVIGMILFLVYDFFIKRKVLNK”, “failed”; as for “MSALEPDDPRSVGEYRLLGRLGAGGMGRVFLGRSPGGRLVAVKVVHAELLRRPEFRDRFRREVQAARMVSGAFTAPVVDADPDAPLPWLVTSYIAGPSLEQAVAERGPFDPQAVLTLAAGLAEALVSIHAAHLVHRDLKPSNVLLAEDGPRVIDFGIVRSVDADSLTGSGHMAGSPGFMSPEQVNGDEVTWASDVFCLGAVLAFAATGTNPFGAGPTPALLYRVVHNAPDVAAVADPALRSLIADCLAKDPAHRPAPREILARIGPLGGESATALPHAQQWTPAARPTRADAVPTRIVPPVAAPPAHQHTRVDTSPAQVYPPAPAPADVRPTATGDGGRRSRRAFLFSGAGALAALGVGTGFWLNRPADPDPAEGSAPAPSPSSAPSPPPGPVGLWPLDEASGQVARDTAGGHDGTVTGVAWQGAGEGAAFDGTGSQIVTAGPVLQTGAGRSFTVAAWVRLSAVPGVFATAVSQDSADASGFYLQYSSEDQGWAFARPGLRAVGRTAPAAHVWTHLTGVCDGPARKLHLYVNGVQEAVVEDTGPAPATGAFMIGRASFDGQPRDFFPGAIRDVRAFDRALGPARVAQLAQLG”, “failed”.
For the sequence “MSALREALRDLPDAVFADVLESEDEYLLVLDLPGVTAETIDVTVEGGRLRIDGQRTKDVPGEFTFVREDRSVFLDAELPLPPDTTGQGGEGTVENGVLELRLPKATAAPSTTIPIDGD”, the protein production entry is “failed”.
The entry for “MSANDKLTILWTTDNKDTVFNMLAMYALNSKNRGWWKHINIILWGASVKLVANDTQVQTEILEMLQSGITIEACQDCCENFGVASIITNLGITVRYMGIPLTEYLKNGEKILSI” is “not failed”; for “MSANMHIFENPSALAEALADDVGARLAAAIAARGTASLAVSGGSTPKAFFRSLSRRELDWSKVTVTLVDERFVPPENDRSNHRLVADNLLKDGAAEARFVPLYQAAETAEAAAAIASGRTASLGAPLDVVVLGMGTDGHTASFFPGGTRLEEALDPTTPRGVITMEAEGAGEPRLTFTFSSLQDAGYLVLHIEGSGKKEVLAQAEASGDEAEMPIRAMLRRAASPLQIYWAP” it is “failed”; for “MSANNTAKNMHPETRAVGSETSSLQASQDEFENLVRNVDVKSRIMDQYADWKGVRYRLGGSTKKGIDCSGFVQRTFREQFGLELPRSTYEQQEMGKSVSRSNLRTGDLVLFRAGSTGRHVGIYIGNNQFVHASTSSGVIISSMNEPYWKKRYNEARRVLSRSLEHHHHHH” it is “not failed”.
